According to the nanobody polyreactivity screen of Harvey et al. (2022):

assay: yeast display, Sf9 membrane polyspecificity reagent, FACS + sequencing; frameworks hold sequencing errors
Method in brief: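 Genes from sorted yeast were amplified by colony PCR, read by MiSeq 2 × 250 sequencing and filtered on CDR length. These cells carried a synthetic nanobody library in Saccharomyces cerevisiae BJ5465 and were sorted by FACS into low and high (top ~1%) gates on anti-HA and streptavidin fluorescence. Polyreactivity is labelled according to the gate of origin.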

| Sequence | polyreactivity (PSR sort gate) |
| --- | --- |
| QVQLVESGGGLVQAGGSLRLSCAASGSIFDLNTMGWYRQAPGKERELVAAITWGGGSTYYADSVKGRFTISRDNAKNTVYLQMNSLKPEDTAVYYCNVTWSWGEKGRKAYGYWGQGTQVTVSS | low polyreactivity |
| QVQLVESGGGLVQAGGSLRLSCAASGSIFDLYAKGWYRQAPGKERELVAGISYSGGSTYYADSVKGRFTISRDNAKNTVYLQMNSLKPEDTAVYYCATAYYYHGGYYYPYDDYWGQGTQVTVSS | low polyreactivity |
| QVQLVESGGGLVQAGGSLRLSCAASGSIFDLYVMGWYRQAPGKERELVAAISLIGGSTSYADSVKGRFTISRDNEKNTVYLHRKSLKPEDTAVYYCAVEKFFRAEYDHWGLGTQVTVSS | low polyreactivity |
| QVQLVESGGGLVQAGGSLRLSCAASGSIFDNYAMGWYRPAPGKERELVAAITSGGSTYYADSVKGRFTISRDNAKNTVYLQMNSLKPEDTAVYYCAKDYKSIDDYWGQGTQVTVSS | low polyreactivity |
| QVQLVESGGGLVQAGGSLRLSCAASGSIFDPYAMGWYIQAPGKERELDAAITASGSSTYYADSVKGRFTISRDNAKNTVYLQMNSLKPEDTAVYYCAADRANWEYLLSWLGYDYWGQGTQVTVSS | low polyreactivity |
| QVQLVESGGGLVQAGGSLRLSCAASGSIFDPYAMGWYRQAPGKERELVAAITSDGSTNYADSVKGRFTISRDNAKNTVYLQMNSLKPEDTAVYYCAKHQFGRYVVLYPRGHWFDYWGQGTQVTVSS | low polyreactivity |
| QVQLVESGGGLVQAGGSLRLSCAASGSIFDPYGMGWYRQAPGKERELVAAISSSDGSTYYADSVKGRFTISRDNAKNTVYLQMNSLKPEDTAVYFCAAETYGTNSSNTVYRWKYDYWGQGTQVTVSS | low polyreactivity |
| QVQLVESGGGLVQAGGSLRLSCAASGSIFDQYAMGWYRPAPGKERELVAAIDTSGGSTYYADSVKGRFTISRDNAKNTVYLQMNSLKPEDTAVYYCNAGGDGDILTTEMDYWGPGTQVTVSS | low polyreactivity |
| QVQLVESGGGLVQAGGSLRLSCAASGSIFDRNAMGWYRQAPGKERELVAAISRSSGNTYYADSVKGRFTISRDNAKNTVYLQMNSLKPEDTAVYYCNKVDYWGQGTQVTVSS | high polyreactivity |
| QVQLVESGGGLVQAGGSLRLSCAASGSIFDRYAMGWYIQAPGKERELVASITWRATSTYYADSVKGRFTISRDNAKNTVYLQMNSLKPEDTAVYYCAADVPWGWWDSDFSDNYYWGQGTQVTVSS | low polyreactivity |
| QVQLVESGGGLVQAGGSLRLSCAASGSIFDSNAMGWYRQAPGKERELVADIRGIGGSTYYADSVKGRFTISRDNAKNTVYLQMNSLKPEDTAVYYCNTSTLGGYYWGQGTQVTVSS | low polyreactivity |
| QVQLVESGGGLVQAGGSLRLSCAASGSIFDSNAMGWYRQAPRQERELVAAISSGGNTNYADSVKGRFTISRDNAKNTVYLQMNSLKPDDTAVYYCARDTQLPHFYGRVSEYDYWGQGTQVTVSA | low polyreactivity |
| QVQLVESGGGLVQAGGSLRLSCAASGSIFDSYAMGWSRQAPGKERELVAAITWSGGITFYADSVKGRFTISRDNAKNTVYLQMNSLKPEDTAVYYCATARSYVGVGGTFVGLYDYWGQCTQVTVSS | low polyreactivity |
| QVQLVESGGGLVQAGGSLRLSCAASGSIFDSYAMGWYRQAPGKDRELVAAISGNSDSTYYADSVKGRFTISRDNATNTVYSQMNSLKAEDTAVYNCNARGRLPYLEFYYWGQGTQVTVSS | low polyreactivity |
| QVQLVESGGGLVQAGGSLRLSCAASGSIFDSYTMAWYRQEPGKEREFVAAISRGGGSTYYADSVKGRFTISRDNAKNTVYLQMNSLKPEDTAVYYCAASSYLNSRFKFDYWGQGTQVTVSS | low polyreactivity |
| QVQLVESGGGLVQAGGSLRLSCAASGSIFDVNAMGCARQAPGNERELVAGISWSGGSTYYADSVKGRFTISRDNAKNTVYLQMNSLKPEDTAVYYCNAEGPIYFYFYRGMDYWGQGTQVTVSS | low polyreactivity |
| QVQLVESGGGLVQAGGSLRLSCAASGSIFDVNAMGWYRQAPGKERELVAAISDSGGSTYYADSVKGRFTISRDNAKNTVYLQMNSLKPEDSAVYYCNADWSWYNYYDFDYWGQGTQVTVSS | low polyreactivity |
| QVQLVESGGGLVQAGGSLRLSCAASGSIFDVNAMGWYRQAPGKERELVASIDNSGTTNYADSVKGRFTISRDNAKNTVYLHMNSLKPEDTAVYYCAKDASLEYSRWGGDYWGQGTQVTVSS | low polyreactivity |
| QVQLVESGGGLVQAGGSLRLSCAASGSIFDVNTMGSYRQAPGKETELGASITSSGSTYYADSVKGRFTISRDNAKNTVYLQMNSLKPEDTAVYYCAATPIGQHFTLDYWGQGTQVTVSS | low polyreactivity |
| QVQLVESGGGLVQAGGSLRLSCAASGSIFDVYAMGWYRLAPGKERELVAAINWTGGSTYYADSVKGRFTISRDNAKNTVYLQMNSLKPEDTAVYYCAASYYYGTEHYDYWGQGTQVTVSS | low polyreactivity |
| QVQLVESGGGLVQAGGSLRLSCAASGSIFDVYAMGWYRQAPGKERELVAAITWRGGSTYYADSVKGRFTISRDNAKNTVYLQMNSLKPEDTAVYYCAAVYQSRLWDRYYYWGQGTQVTVSS | high polyreactivity |
| QVQLVESGGGLVQAGGSLRLSCAASGSIFDVYTMGWYRQAPGKDRELVAAINTGGGSTYYADSVKGRFTISRDNAKNTVYLQMNSLKPEDTAVYYCARSRYREWGQGTQVTVSS | low polyreactivity |
| QVQLVESGGGLVQAGGSLRLSCAASGSIFDVYTRGWYRQAPGKQRELVAAINTGGGSTYYADSEKGRFTISRDIAKNTVYLQMNSLKPEDTAVYYCAASVYHYGPLYYWGQVTQVTVSS | low polyreactivity |
| QVQLVESGGGLVQAGGSLRLSCAASGSIFDWYAMGWYRQAPGKEGELVAAISSGDSTYYADSVKGRFTISRDNAKNTVYLQMNSLKPEDTAVYYGAAVTKLSGIRYNYWGQGTQVTVSS | low polyreactivity |
| QVQLVESGGGLVQAGGSLRLSCAASGSIFDYNAMGWYIQAPGKEREFVAAITYSGGSTYYADSVKGRFTISRDNAKYTVYLQMYSLKPEDSAVYYCGADYFQHVPKYGYCGQGTQVTVSS | low polyreactivity |
| QVQLVESGGGLVQAGGSLRLSCAASGSIFDYYAMGWYRQAPGKERELVAAIDSGDITYYADSVKGRFTISRDNAMNTVYLQMNSLKPEETAVYYCAAEGTGYSVGWQYGYWGQGTQVTVSS | low polyreactivity |
| QVQLVESGGGLVQAGGSLRLSCAASGSIFDYYAMGWYRQAPGKERELVAAIRRIGGITYYADSVKGRFTISRDNAKNTVYLQMNSLKPEDTAVYYCNVLVKHSTTTYSTYDYWGQGTQVTVSS | high polyreactivity |
| QVQLVESGGGLVQAGGSLRLSCAASGSIFDYYAMGWYRQAPGKERELVAAISGTGGSTYYADSVKGRFTISRDNAKNTVYLQMNSLKPEDTAVYYCNAGRHILTALRNDGTFDYWGQGTQVTVSS | high polyreactivity |
| QVQLVESGGGLVQAGGSLRLSCAASGSIFDYYTMGWYRQAPGKEREFVAGISDSGGSTNYADSVKGRFTISRDNAKNTVYLQMNSLKPEDTAVYYCNAEYVGWFYKYDYWGQGTQVTVSS | high polyreactivity |
| QVQLVESGGGLVQAGGSLRLSCAASGSIFEFYAMGWYRQAPGKERELVAAITSDGGSTYYADSVKGRFTISRDNAKNTVYLQMNSLKPEDTAVYYCAKDPYALPAQINDYWGQGTQVTVSS | high polyreactivity |
